{"source": "patent US20180273617A1", "about": "(AstraZeneca / MedImmune, published 2018)", "binders": {"B1": {"name": "anti-ASCT2 antibody 17c10 conjugated to tubulysin AZ1508 (antibody, V domains shown)", "VH": "QVQLQQWGAGLLKPSETLSLTCAVYGGSFSGYYWSWIRQPPGKGLEWIGEIHHSGGANYNPSLKSRVTISVDTSKNQFSLKLTSVTAADTAVYYCARGQGKNWHYDYFDYWGQGTLVTVSS", "VL": "DIQMTQSPSTLSTSVGDRVTLTCRASQSIRSWLAWYQQNPGKAPKLLIYKASILKIGVPSRFSGSGSGTDFTLTITSLQPDDFATYYCQQYYSYSRTFGQGTKVEIK", "modifications": "tubulysin AZ1508 conjugated to a cysteine by a thiol-maleimide linkage; site not stated for these assays (engineered cysteine 239i or native cysteines)"}}, "molecular_target": "T1, human ASCT2 (SLC1A5) (human, UniProt Q15758 1-541)", "T1 sequence (looked up)": "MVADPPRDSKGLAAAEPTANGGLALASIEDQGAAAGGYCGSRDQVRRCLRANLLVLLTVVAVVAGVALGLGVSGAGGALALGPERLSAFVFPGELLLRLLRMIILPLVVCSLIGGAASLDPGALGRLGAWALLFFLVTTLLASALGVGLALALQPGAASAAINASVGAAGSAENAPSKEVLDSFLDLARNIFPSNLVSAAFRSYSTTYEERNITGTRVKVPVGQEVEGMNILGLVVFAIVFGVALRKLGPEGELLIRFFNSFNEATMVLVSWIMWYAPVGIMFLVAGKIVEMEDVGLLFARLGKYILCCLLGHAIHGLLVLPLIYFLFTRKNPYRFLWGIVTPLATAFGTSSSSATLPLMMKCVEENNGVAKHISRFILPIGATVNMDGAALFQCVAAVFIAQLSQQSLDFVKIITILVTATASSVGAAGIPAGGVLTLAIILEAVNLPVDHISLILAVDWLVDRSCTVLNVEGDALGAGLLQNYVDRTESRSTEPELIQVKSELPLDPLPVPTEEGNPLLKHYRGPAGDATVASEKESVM", "test": "cell-based or functional assay", "data": [{"binder": "B1", "values": [{"measurement": "IC50 (ng/ml), cytotoxic killing of SKMEL-2 cells, ASCT1-shRNA1 knockdown", "value": 7.59, "unit": "ng/mL"}, {"measurement": "IC50 (ng/ml), cytotoxic killing of SKMEL-2 cells, ASCT1-shRNA2 knockdown", "value": 4.96, "unit": "ng/mL"}, {"measurement": "IC50 (ng/ml), cytotoxic killing of SKMEL-2 cells, ASCT2-shRNA knockdown", "value": 205, "unit": "ng/mL"}, {"measurement": "IC50 (ng/ml), cytotoxic killing of SKMEL-2 cells, NTshRNA (non-target control)", "value": 14.3, "unit": "ng/mL"}]}]}
